Biological target: T1, CD3 epsilon homodimer protein (UniProt P07766 23-126)
T1 construct: also called CD3 (CD3 epsilon)
Experiment: SPR, CD3 epsilon homodimer on chip, one-arm antibody as analyte;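 also: surface plasmon resonance at 25 °C with CD3 epsilon homodimer amine-coupled to a CM4 sensor chip, antibody injected as analyte, HBS-EP+ as running buffer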
Experimental: An appropriate amount of CD3 epsilon homodimer protein was immobilized onto Sensor chip CM4 (GE Healthcare Japan Corp.) by the amine coupling method. Then, the antibody having an appropriate concentration was injected thereto as an analyte and allowed to interact with the CD3 epsilon homodimer protein on the sensor chip. Then, the sensor chip was regenerated by the injection of 10 mmol/L glycine-HCl (pH 1.5). The assay was conducted at 25 degrees C., and HBS-EP+(GE Healthcare Japan Corp.) was used as a running buffer. […] Each parameter was calculated using Biacore T200 Evaluation Software (GE Healthcare Japan Corp.).

T1 sequence (P07766 23-126): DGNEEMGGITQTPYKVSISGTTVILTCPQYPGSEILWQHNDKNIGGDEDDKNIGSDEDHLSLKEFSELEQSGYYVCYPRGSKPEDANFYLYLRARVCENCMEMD

Binder	KD ratio (KD of CE115HA000/KD of altered form)
CE115HA000 A56L (antibody, human IgG1, kappa, L234A L235A, N297A, name in Kabat numbering, one-arm antibody) heavy: QVQLVESGGGVVQPGRSLRLSCAASGFTFSNAWMHWVRQAPGKGLEWVAQIKAKSNNYLTYYAESVKGRFTISRDDSKNSLYLQMNSLKTEDTAVYYCRYVHYGAYYGVDAWGQGTTVTVSSASTKGPSVFPLAPSSKSTSGGTAALGCLVKDYFPEPVTVSWNSGALTSGVHTFPAVLQSSGLYSLSSVVTVPSSSLGTQTYICNVNHKPSNTKVDKKVEPKSCDKTHTCPPCPAPEAAGGPSVFLFPPKPKDTLMISRTPEVTCVVVDVSHEDPEVKFNWYVDGVEVHNAKTKPREEQYASTYRVVSVLTVLHQDWLNGKEYKCKVSNKALPAPIEKTISKAKGQPREPQVYTLPPSRCELTKNQVSLSCAVKGFYPSDIAVEWESNGQPENNYKTTPPVLDSDGSFFLVSKLTVDKSRWQQGNVFSCSVMHEALHNHYTQKSLSLSPDYKDDDDK EPKSSDKTHTCPPCPAPELLGGPSVFLFPPKPKDTLMISRTPEVTCVVVDVSHEDPEVKFNWYVDGVEVHNAKTKPREEQYNSTYRVVSVLTVLHQDWLNGKEYKCKVSNKALPAPIEKTISKAKGQPREPQVCTLPPSRDELTKNQVSLWCLVKGFYPSDIAVEWESNGQPENNYKTTPPVLDSDGSFFLYSKLTVDKSRWQQGNVFSCSVMHEALHNRYTQKSLSLSP light: DIVMTQSPLSLPVTPGEPASISCRSSQSLVHSNRNTYLHWYQQKPGQAPRLLIYKVSNRFSGVPDRFSGSGSGTDFTLKISRVEAEDVGVYYCGQGTQVPYTFGQGTKLEIKRTVAAPSVFIFPPSDEQLKSGTASVVCLLNNFYPREAKVQWKVDNALQSGNSQESVTEQDSKDSTYSLSSTLTLSKADYEKHKVYACEVTHQGLSSPVTKSFNRGEC	0.77
CE115HA000 A60D (antibody, human IgG1, kappa, L234A L235A, N297A, name in Kabat numbering, one-arm antibody) heavy: QVQLVESGGGVVQPGRSLRLSCAASGFTFSNAWMHWVRQAPGKGLEWVAQIKAKSNNYATYYDESVKGRFTISRDDSKNSLYLQMNSLKTEDTAVYYCRYVHYGAYYGVDAWGQGTTVTVSSASTKGPSVFPLAPSSKSTSGGTAALGCLVKDYFPEPVTVSWNSGALTSGVHTFPAVLQSSGLYSLSSVVTVPSSSLGTQTYICNVNHKPSNTKVDKKVEPKSCDKTHTCPPCPAPEAAGGPSVFLFPPKPKDTLMISRTPEVTCVVVDVSHEDPEVKFNWYVDGVEVHNAKTKPREEQYASTYRVVSVLTVLHQDWLNGKEYKCKVSNKALPAPIEKTISKAKGQPREPQVYTLPPSRCELTKNQVSLSCAVKGFYPSDIAVEWESNGQPENNYKTTPPVLDSDGSFFLVSKLTVDKSRWQQGNVFSCSVMHEALHNHYTQKSLSLSPDYKDDDDK EPKSSDKTHTCPPCPAPELLGGPSVFLFPPKPKDTLMISRTPEVTCVVVDVSHEDPEVKFNWYVDGVEVHNAKTKPREEQYNSTYRVVSVLTVLHQDWLNGKEYKCKVSNKALPAPIEKTISKAKGQPREPQVCTLPPSRDELTKNQVSLWCLVKGFYPSDIAVEWESNGQPENNYKTTPPVLDSDGSFFLYSKLTVDKSRWQQGNVFSCSVMHEALHNRYTQKSLSLSP light: DIVMTQSPLSLPVTPGEPASISCRSSQSLVHSNRNTYLHWYQQKPGQAPRLLIYKVSNRFSGVPDRFSGSGSGTDFTLKISRVEAEDVGVYYCGQGTQVPYTFGQGTKLEIKRTVAAPSVFIFPPSDEQLKSGTASVVCLLNNFYPREAKVQWKVDNALQSGNSQESVTEQDSKDSTYSLSSTLTLSKADYEKHKVYACEVTHQGLSSPVTKSFNRGEC	0.94
CE115HA000 A56N (antibody, human IgG1, kappa, L234A L235A, N297A, name in Kabat numbering, one-arm antibody) heavy: QVQLVESGGGVVQPGRSLRLSCAASGFTFSNAWMHWVRQAPGKGLEWVAQIKAKSNNYNTYYAESVKGRFTISRDDSKNSLYLQMNSLKTEDTAVYYCRYVHYGAYYGVDAWGQGTTVTVSSASTKGPSVFPLAPSSKSTSGGTAALGCLVKDYFPEPVTVSWNSGALTSGVHTFPAVLQSSGLYSLSSVVTVPSSSLGTQTYICNVNHKPSNTKVDKKVEPKSCDKTHTCPPCPAPEAAGGPSVFLFPPKPKDTLMISRTPEVTCVVVDVSHEDPEVKFNWYVDGVEVHNAKTKPREEQYASTYRVVSVLTVLHQDWLNGKEYKCKVSNKALPAPIEKTISKAKGQPREPQVYTLPPSRCELTKNQVSLSCAVKGFYPSDIAVEWESNGQPENNYKTTPPVLDSDGSFFLVSKLTVDKSRWQQGNVFSCSVMHEALHNHYTQKSLSLSPDYKDDDDK EPKSSDKTHTCPPCPAPELLGGPSVFLFPPKPKDTLMISRTPEVTCVVVDVSHEDPEVKFNWYVDGVEVHNAKTKPREEQYNSTYRVVSVLTVLHQDWLNGKEYKCKVSNKALPAPIEKTISKAKGQPREPQVCTLPPSRDELTKNQVSLWCLVKGFYPSDIAVEWESNGQPENNYKTTPPVLDSDGSFFLYSKLTVDKSRWQQGNVFSCSVMHEALHNRYTQKSLSLSP light: DIVMTQSPLSLPVTPGEPASISCRSSQSLVHSNRNTYLHWYQQKPGQAPRLLIYKVSNRFSGVPDRFSGSGSGTDFTLKISRVEAEDVGVYYCGQGTQVPYTFGQGTKLEIKRTVAAPSVFIFPPSDEQLKSGTASVVCLLNNFYPREAKVQWKVDNALQSGNSQESVTEQDSKDSTYSLSSTLTLSKADYEKHKVYACEVTHQGLSSPVTKSFNRGEC	0.84

More lines, now with the values ahead:

KD ratio (KD of CE115HA000/KD of altered form)	Binder
0.88	CE115HA000 A60E (antibody, human IgG1, kappa, L234A L235A, N297A, name in Kabat numbering, one-arm antibody) heavy: QVQLVESGGGVVQPGRSLRLSCAASGFTFSNAWMHWVRQAPGKGLEWVAQIKAKSNNYATYYEESVKGRFTISRDDSKNSLYLQMNSLKTEDTAVYYCRYVHYGAYYGVDAWGQGTTVTVSSASTKGPSVFPLAPSSKSTSGGTAALGCLVKDYFPEPVTVSWNSGALTSGVHTFPAVLQSSGLYSLSSVVTVPSSSLGTQTYICNVNHKPSNTKVDKKVEPKSCDKTHTCPPCPAPEAAGGPSVFLFPPKPKDTLMISRTPEVTCVVVDVSHEDPEVKFNWYVDGVEVHNAKTKPREEQYASTYRVVSVLTVLHQDWLNGKEYKCKVSNKALPAPIEKTISKAKGQPREPQVYTLPPSRCELTKNQVSLSCAVKGFYPSDIAVEWESNGQPENNYKTTPPVLDSDGSFFLVSKLTVDKSRWQQGNVFSCSVMHEALHNHYTQKSLSLSPDYKDDDDK EPKSSDKTHTCPPCPAPELLGGPSVFLFPPKPKDTLMISRTPEVTCVVVDVSHEDPEVKFNWYVDGVEVHNAKTKPREEQYNSTYRVVSVLTVLHQDWLNGKEYKCKVSNKALPAPIEKTISKAKGQPREPQVCTLPPSRDELTKNQVSLWCLVKGFYPSDIAVEWESNGQPENNYKTTPPVLDSDGSFFLYSKLTVDKSRWQQGNVFSCSVMHEALHNRYTQKSLSLSP light: DIVMTQSPLSLPVTPGEPASISCRSSQSLVHSNRNTYLHWYQQKPGQAPRLLIYKVSNRFSGVPDRFSGSGSGTDFTLKISRVEAEDVGVYYCGQGTQVPYTFGQGTKLEIKRTVAAPSVFIFPPSDEQLKSGTASVVCLLNNFYPREAKVQWKVDNALQSGNSQESVTEQDSKDSTYSLSSTLTLSKADYEKHKVYACEVTHQGLSSPVTKSFNRGEC
0.63	CE115HA000 A56Y (antibody, human IgG1, kappa, L234A L235A, N297A, name in Kabat numbering, one-arm antibody) heavy: QVQLVESGGGVVQPGRSLRLSCAASGFTFSNAWMHWVRQAPGKGLEWVAQIKAKSNNYYTYYAESVKGRFTISRDDSKNSLYLQMNSLKTEDTAVYYCRYVHYGAYYGVDAWGQGTTVTVSSASTKGPSVFPLAPSSKSTSGGTAALGCLVKDYFPEPVTVSWNSGALTSGVHTFPAVLQSSGLYSLSSVVTVPSSSLGTQTYICNVNHKPSNTKVDKKVEPKSCDKTHTCPPCPAPEAAGGPSVFLFPPKPKDTLMISRTPEVTCVVVDVSHEDPEVKFNWYVDGVEVHNAKTKPREEQYASTYRVVSVLTVLHQDWLNGKEYKCKVSNKALPAPIEKTISKAKGQPREPQVYTLPPSRCELTKNQVSLSCAVKGFYPSDIAVEWESNGQPENNYKTTPPVLDSDGSFFLVSKLTVDKSRWQQGNVFSCSVMHEALHNHYTQKSLSLSPDYKDDDDK EPKSSDKTHTCPPCPAPELLGGPSVFLFPPKPKDTLMISRTPEVTCVVVDVSHEDPEVKFNWYVDGVEVHNAKTKPREEQYNSTYRVVSVLTVLHQDWLNGKEYKCKVSNKALPAPIEKTISKAKGQPREPQVCTLPPSRDELTKNQVSLWCLVKGFYPSDIAVEWESNGQPENNYKTTPPVLDSDGSFFLYSKLTVDKSRWQQGNVFSCSVMHEALHNRYTQKSLSLSP light: DIVMTQSPLSLPVTPGEPASISCRSSQSLVHSNRNTYLHWYQQKPGQAPRLLIYKVSNRFSGVPDRFSGSGSGTDFTLKISRVEAEDVGVYYCGQGTQVPYTFGQGTKLEIKRTVAAPSVFIFPPSDEQLKSGTASVVCLLNNFYPREAKVQWKVDNALQSGNSQESVTEQDSKDSTYSLSSTLTLSKADYEKHKVYACEVTHQGLSSPVTKSFNRGEC
0.74	CE115HA000 A56Q (antibody, human IgG1, kappa, L234A L235A, N297A, name in Kabat numbering, one-arm antibody) heavy: QVQLVESGGGVVQPGRSLRLSCAASGFTFSNAWMHWVRQAPGKGLEWVAQIKAKSNNYQTYYAESVKGRFTISRDDSKNSLYLQMNSLKTEDTAVYYCRYVHYGAYYGVDAWGQGTTVTVSSASTKGPSVFPLAPSSKSTSGGTAALGCLVKDYFPEPVTVSWNSGALTSGVHTFPAVLQSSGLYSLSSVVTVPSSSLGTQTYICNVNHKPSNTKVDKKVEPKSCDKTHTCPPCPAPEAAGGPSVFLFPPKPKDTLMISRTPEVTCVVVDVSHEDPEVKFNWYVDGVEVHNAKTKPREEQYASTYRVVSVLTVLHQDWLNGKEYKCKVSNKALPAPIEKTISKAKGQPREPQVYTLPPSRCELTKNQVSLSCAVKGFYPSDIAVEWESNGQPENNYKTTPPVLDSDGSFFLVSKLTVDKSRWQQGNVFSCSVMHEALHNHYTQKSLSLSPDYKDDDDK EPKSSDKTHTCPPCPAPELLGGPSVFLFPPKPKDTLMISRTPEVTCVVVDVSHEDPEVKFNWYVDGVEVHNAKTKPREEQYNSTYRVVSVLTVLHQDWLNGKEYKCKVSNKALPAPIEKTISKAKGQPREPQVCTLPPSRDELTKNQVSLWCLVKGFYPSDIAVEWESNGQPENNYKTTPPVLDSDGSFFLYSKLTVDKSRWQQGNVFSCSVMHEALHNRYTQKSLSLSP light: DIVMTQSPLSLPVTPGEPASISCRSSQSLVHSNRNTYLHWYQQKPGQAPRLLIYKVSNRFSGVPDRFSGSGSGTDFTLKISRVEAEDVGVYYCGQGTQVPYTFGQGTKLEIKRTVAAPSVFIFPPSDEQLKSGTASVVCLLNNFYPREAKVQWKVDNALQSGNSQESVTEQDSKDSTYSLSSTLTLSKADYEKHKVYACEVTHQGLSSPVTKSFNRGEC

— patent publication US20210388087A1 (Chugai, published 2021)
